For 1 substance, Kd results are on record in paper PMC5973702.

The test deals with human voltage-gated K+ channel Kv1.3 with C-terminal FLAG/10Xhis tag, expressed in Tetrahymena thermophila (human) (UniProt P22001). Description: fluorescence polarisation.
Sequence of UniProt P22001 (P22001 whole entry): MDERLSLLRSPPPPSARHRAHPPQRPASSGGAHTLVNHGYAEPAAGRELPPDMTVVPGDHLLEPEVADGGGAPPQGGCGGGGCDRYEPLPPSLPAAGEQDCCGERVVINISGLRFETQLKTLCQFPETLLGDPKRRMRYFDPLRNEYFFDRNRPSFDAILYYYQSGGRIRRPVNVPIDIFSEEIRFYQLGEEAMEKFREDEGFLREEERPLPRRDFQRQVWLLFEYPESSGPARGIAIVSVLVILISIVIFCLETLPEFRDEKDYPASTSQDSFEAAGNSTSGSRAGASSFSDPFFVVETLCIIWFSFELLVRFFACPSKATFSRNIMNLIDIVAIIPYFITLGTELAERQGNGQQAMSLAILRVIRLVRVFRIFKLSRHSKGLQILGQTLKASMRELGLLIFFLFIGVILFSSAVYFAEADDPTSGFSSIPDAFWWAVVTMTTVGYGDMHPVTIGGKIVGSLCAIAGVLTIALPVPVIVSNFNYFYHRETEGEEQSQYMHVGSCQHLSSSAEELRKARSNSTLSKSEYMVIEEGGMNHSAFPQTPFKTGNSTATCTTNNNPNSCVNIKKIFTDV

In turn, “FAM-ShK (Fluorescein 6-carbonyl-labelled Stichodactyla toxin) (peptide)” showed a Kd of 11.5 nM.
